Patent US20240384250A1, “FIBROBLAST GROWTH FACTOR 23 MODULATING COMPOUNDS” (THE UAB RESEARCH FOUNDATION, priority 2021, published 2024)
“Also recorded” adds a separate entry of the source.

Tested on: FGF23 and FGFR1c
Test: sKL detection assay (FGF23 coated, Fc-FGFR1c detection)
Type: binding
Conditions: for binding in the sKL detection assay, total cell lysates: lysates of stably transfected HEK293T cells; for binding in the sKL detection assay: commercial preparations compared with the sKL protein
Procedure: Commercially available ELISA plates (Maxisorp) are coated with 5 μg/ml of recombinant FGF23 protein (R&D Systems) and unspecific binding sites are blocked with BSA/Tween20. Wells are incubated with sKL in solution (which can be plasma, serum or cell culture supernatants) for one hour, washed and incubated for one hour with 750 ng/ml of recombinant FGFR1α(IIIc)-Fc (R&D Systems), which is a chimeric protein consisting of the FGFR1 ectodomain and the Fc region of a human IgG. FGFR1 only binds to FGF23 in the presence of sKL, and the formation of this trimeric sandwich complex is then measured by detecting the presence of the Fc domain that is coupled to FGFR1. To do so, wells are washed and incubated with 400 ng/ml of anti-human IgG conjugated to horseradish peroxidase (HRP; Promega). Wells are washed and incubated with HRP substrate. After development for about 30 minutes, reactions are analyzed on a standard plate reader via absorptions at […]. Incubations with recombinant sKL dissolved in PBS at defined concentrations serve as standards that are used as reference values to determine sKL concentrations in the studied human samples. […]
HEK293 cells were plated in 10 cm dishes supplemented with 10% FBS (26140079, Gibco) and I× Pen/Strep (15140122, Gibco). Cells were transfected with appropriate klotho or green fluorescent protein cDNA constructs. After 2 days, clones were selected by using 1 μg/ml of puromycin (A1113803, Gibco). Cells were then split and plated in 10 cm dishes in DMEM supplemented with FBS and puromycin. After 48 hours, cells were lysed in 1 ml of RIPA buffer with the addition of a protease inhibitor (11873580001, Roche) for 30 minutes. The mixture was then centrifuged at 20,000 g for 1 hour to remove all cell debris. Activity assay was run as above in the sKL halflife study. Instead of serum, 20 μl of the indicated cell lysate was used and combined with 80 μl of activity assay buffer.

| Molecule | binding in the sKL detection assay, total cell lysates | binding in the sKL detection assay, total cell lysates (listed as full-length klotho) | binding in the sKL detection assay |
| --- | --- | --- | --- |
| KL: full-length klotho in total lysates of stably transfected HEK293T cells (protein, UniProt Q9UEF7 1-1012, looked up, full-length, full-length klotho in total lysates of stably transfected HEK293T cells) MPASAPPRRPRPPPPSLSLLLVLLGLGGRRLRAEPGDGAQTWARFSRPPAPEAAGLFQGTFPDGFLWAVGSAAYQTEGGWQQHGKGASIWDTFTHHPLAPPGDSRNASLPLGAPSPLQPATGDVASDSYNNVFRDTEALRELGVTHYRFSISWARVLPNGSAGVPNREGLRYYRRLLERLRELGVQPVVTLYHWDLPQRLQDAYGGWANRALADHFRDYAELCFRHFGGQVKYWITIDNPYVVAWHGYATGRLAPGIRGSPRLGYLVAHNLLLAHAKVWHLYNTSFRPTQGGQVSIALSSHWINPRRMTDHSIKECQKSLDFVLGWFAKPVFIDGDYPESMKNNLSSILPDFTESEKKFIKGTADFFALCFGPTLSFQLLDPHMKFRQLESPNLRQLLSWIDLEFNHPQIFIVENGWFVSGTTKRDDAKYMYYLKKFIMETLKAIKLDGVDVIGYTAWSLMDGFEWHRGYSIRRGLFYVDFLSQDKMLLPKSSALFYQKLIEKNGFPPLPENQPLEGTFPCDFAWGVVDNYIQVDTTLSQFTDLNVYLWDVHHSKRLIKVDGVVTKKRKSYCVDFAAIQPQIALLQEMHVTHFRFSLDWALILPLGNQSQVNHTILQYYRCMASELVRVNITPVVALWQPMAPNQGLPRLLARQGAWENPYTALAFAEYARLCFQELGHHVKLWITMNEPYTRNMTYSAGHNLLKAHALAWHVYNEKFRHAQNGKISIALQADWIEPACPFSQKDKEVAERVLEFDIGWLAEPIFGSGDYPWVMRDWLNQRNNFLLPYFTEDEKKLIQGTFDFLALSHYTTILVDSEKEDPIKYNDYLEVQEMTDITWLNSPSQVAVVPWGLRKVLNWLKFKYGDLPMYIISNGIDDGLHAEDDQLRVYYMQNYINEALKAHILDGINLCGYFAYSFNDRTAPRFGLYRYAADQFEPKASMKHYRKIIDSNGFPGPETLERFCPEEFTVCTECSFFHTRKSLLAFIAFLFFASIISLSLIFYYSKKGRRSYK | much weaker binding | negative | – |
| sBKL: soluble β-klotho in total lysates of stably transfected HEK293T cells (protein, left off: small tags and cut ends, soluble β-klotho in total lysates of stably transfected HEK293T cells) MKTGCAAGSPGNEWIFFSSDERNTRSRKTMSNRALQRSAVLSAFVLLRAVTGFSGDGKAIWDKKQYVSPVNPSQLFLYDTFPKNFSWGVGTGAFQVEGSWKTDGRGPSIWDRYVYSHLRGVNGTDRSTDSYIFLEKDLLALDFLGVSFYQFSISWPRLFPNGTVAAVNAQGLRYYRALLDSLVLRNIEPIVTLYHWDLPLTLQEEYGGWKNATMIDLFNDYATYCFQTFGDRVKYWITIHNPYLVAWHGFGTGMHAPGEKGNLTAVYTVGHNLIKAHSKVWHNYDKNFRPHQKGWLSITLGSHWIEPNRTDNMEDVINCQHSMSSVLGWFANPIHGDGDYPEFMKTGAMIPEFSEAEKEEVRGTADFFAFSFGPNNFRPSNTVVKMGQNVSLNLRQVLNWIKLEYDDPQILISENGWFTDSYIKTEDTTAIYMMKNFLNQVLQAIKFDEIRVFGYTAWTLLDGFEWQDAYTTRRGLFYVDFNSEQKERKPKSSAHYYKQIIQDNGFPLKESTPDMKGRFPCDFSWGVTESVLKPEFTVSSPQFTDPHLYVWNVTGNRLLYRVEGVRLKTRPSQCTDYVSIKKRVEMLAKMKVTHYQFALDWTSILPTGNLSKVNRQVLRYYRCVVSEGLKLGVFPMVTLYHPTHSHLGLPLPLLSSGGWLNMNTAKAFQDYAELCFRELGDLVKLWITINEPNRLSDMYNRTSNDTYRAAHNLMIAHAQVWHLYDRQYRPVQHGAVSLSLHCDWAEPANPFVDSHWKAAERFLQFEIAWFADPLFKTGDYPSVMKEYIASKNQRGLSSSVLPRFTAKESRLVKGTVDFYALNHFTTRFVIHKQLNTNRSVADRDVQFLQDITRLSSPSRLAVTPWGVRKLLAWIRRNYRDRDIYITANGIDDLALEDDQIRKYYLEKYVQEALKAYLIDKVKIKGYYAFKLTEEKSKPRFGFFTSDFRAKSSVQFYSKLISSSGLPAENRSPACGQPAEDTDCTICSFLVEKKP | no measurable binding activity | – | – |
| Com.sKL: commercial preparation, mouse sKL from R&D Systems (1819KL050), aa 35-982 (protein) AEPGQGAQTWARFARAPAPEAAGLLHDTFPDGFLWAVGSAAYQTEGGWRQHGKGASIWDTFTHHSGAAPSDSPIVVAPSGAPSPPLSSTGDVASDSYNNVYRDTEGLRELGVTHYRFSISWARVLPNGTAGTPNREGLRYYRRLLERLRELGVQPVVTLYHWDLPQRLQDTYGGWANRALADHFRDYAELCFRHFGGQVKYWITIDNPYVVAWHGYATGRLAPGVRGSSRLGYLVAHNLLLAHAKVWHLYNTSFRPTQGGRVSIALSSHWINPRRMTDYNIRECQKSLDFVLGWFAKPIFIDGDYPESMKNNLSSLLPDFTESEKRLIRGTADFFALSFGPTLSFQLLDPNMKFRQLESPNLRQLLSWIDLEYNHPPIFIVENGWFVSGTTKRDDAKYMYYLKKFIMETLKAIRLDGVDVIGYTAWSLMDGFEWHRGYSIRRGLFYVDFLSQDKELLPKSSALFYQKLIEDNGFPPLPENQPLEGTFPCDFAWGVVDNYVQVDTTLSQFTDPNVYLWDVHHSKRLIKVDGVVAKKRKPYCVDFSAIRPQITLLREMRVTHFRFSLDWALILPLGNQTQVNHTVLHFYRCMISELVHANITPVVALWQPAAPHQGLPHALAKHGAWENPHTALAFADYANLCFKELGHWVNLWITMNEPNTRNMTYRAGHHLLRAHALAWHLYDDKFRAAQKGKISIALQADWIEPACPFSQNDKEVAERVLEFDIGWLAEPIFGSGDYPRVMRDWLNQKNNFLLPYFTEDEKKLVRGSFDFLAVSHYTTILVDWEKEDPMKYNDYLEVQEMTDITWLNSPSQVAVVPWGLRKVLNWLRFKYGDLPMYVTANGIDDDPHAEQDSLRIYYIKNYVNEALKAYVLDDINLCGYFAYSLSDRSAPKSGFYRYAANQFEPKPSMKHYRKIIDSNGFLGSGTLGRFCPEEYTVCTECGFFQTRK | – | – | significantly reduced binding |
| KL1: human klotho domain 1 (KL1) from PeproTech, aa 34-549 (protein) EPGDGAQTWARFSRPPAPEAAGLFQGTFPDGFLWAVGSAAYQTEGGWQQHGKGASIWDTFTHHPLAPPGDSRNASLPLGAPSPLQPATGDVASDSYNNVFRDTEALRELGVTHYRFSISWARVLPNGSAGVPNREGLRYYRRLLERLRELGVQPVVTLYHWDLPQRLQDAYGGWANRALADHFRDYAELCFRHFGGQVKYWITIDNPYVVAWHGYATGRLAPGIRGSPRLGYLVAHNLLLAHAKVWHLYNTSFRPTQGGQVSIALSSHWINPRRMTDHSIKECQKSLDFVLGWFAKPVFIDGDYPESMKNNLSSILPDFTESEKKFIKGTADFFALCFGPTLSFQLLDPHMKFRQLESPNLRQLLSWIDLEFNHPQIFIVENGWFVSGTTKRDDAKYMYYLKKFIMETLKAIKLDGVDVIGYTAWSLMDGFEWHRGYSIRRGLFYVDFLSQDKMLLPKSSALFYQKLIEKNGFPPLPENQPLEGTFPCDFAWGVVDNYIQVDTTLSQFTDLNVYLW | – | – | cannot mediate FGF23-FGFR1c binding; also recorded: did not show any bioactivity; also recorded: no binding |
| BKL: full-length β-klotho in total lysates of stably transfected HEK293T cells (protein, left off: small tags and cut ends, full-length β-klotho in total lysates of stably transfected HEK293T cells) MKTGCAAGSPGNEWIFFSSDERNTRSRKTMSNRALQRSAVLSAFVLLRAVTGFSGDGKAIWDKKQYVSPVNPSQLFLYDTFPKNFSWGVGTGAFQVEGSWKTDGRGPSIWDRYVYSHLRGVNGTDRSTDSYIFLEKDLLALDFLGVSFYQFSISWPRLFPNGTVAAVNAQGLRYYRALLDSLVLRNIEPIVTLYHWDLPLTLQEEYGGWKNATMIDLFNDYATYCFQTFGDRVKYWITIHNPYLVAWHGFGTGMHAPGEKGNLTAVYTVGHNLIKAHSKVWHNYDKNFRPHQKGWLSITLGSHWIEPNRTDNMEDVINCQHSMSSVLGWFANPIHGDGDYPEFMKTGAMIPEFSEAEKEEVRGTADFFAFSFGPNNFRPSNTVVKMGQNVSLNLRQVLNWIKLEYDDPQILISENGWFTDSYIKTEDTTAIYMMKNFLNQVLQAIKFDEIRVFGYTAWTLLDGFEWQDAYTTRRGLFYVDFNSEQKERKPKSSAHYYKQIIQDNGFPLKESTPDMKGRFPCDFSWGVTESVLKPEFTVSSPQFTDPHLYVWNVTGNRLLYRVEGVRLKTRPSQCTDYVSIKKRVEMLAKMKVTHYQFALDWTSILPTGNLSKVNRQVLRYYRCVVSEGLKLGVFPMVTLYHPTHSHLGLPLPLLSSGGWLNMNTAKAFQDYAELCFRELGDLVKLWITINEPNRLSDMYNRTSNDTYRAAHNLMIAHAQVWHLYDRQYRPVQHGAVSLSLHCDWAEPANPFVDSHWKAAERFLQFEIAWFADPLFKTGDYPSVMKEYIASKNQRGLSSSVLPRFTAKESRLVKGTVDFYALNHFTTRFVIHKQLNTNRSVADRDVQFLQDITRLSSPSRLAVTPWGVRKLLAWIRRNYRDRDIYITANGIDDLALEDDQIRKYYLEKYVQEALKAYLIDKVKIKGYYAFKLTEEKSKPRFGFFTSDFRAKSSVQFYSKLISSSGLPAENRSPACGQPAEDTDCTICSFLVEKKPLIFFGCCFISTLAVLLSITVFHHQKRRKFQKARNLQNIPLKKGHSRVFS | no measurable binding activity | – | – |
